Assay results taken from US20170071208A1, “COMPOSITIONS FOR MOSQUITO CONTROL AND USES OF SAME” (Forrest Innovations Ltd., priority 2014, published 2017).

What was measured:
[1] = test system: Aedes aegypti female mosquitoes, Rockefeller strain; assay: CDC bottle bioassay with deltamethrin, insecticide-susceptible Rockefeller strain; format: in vivo; settings: diagnostic dosage 2 μg/mL of deltamethrin; Rockefeller strain adult females
Method: (§1) FIGS. 5A-C are graphs illustrating the dose-response curves for 3- to 5-day-old Aedes aegypti female mosquitoes on insecticide-susceptible Rockefeller strain (FIG. 5A) and on insecticide-resistant Rio de Janeiro strain (FIG. 5B). Mosquitoes were exposed to different concentrations of deltamethrin in 250-mL glass bottles for up to 24 hours and the percentage of mortality for each time point is shown. FIG. 5C, comparison of the mortality rates of female mosquitoes from Rockefeller (Rock) and Rio de Janeiro (RJ) strains exposed to 2 μg/mL of deltamethrin for different time-points. Data represent mean values of three replicates with standard deviation.
(§2) Mosquitoes were taken from an Ae. aegypti colony of the Rockefeller strain or from a mosquito field population of Ae. aegypti isolated from urban area of Rio de Janeiro, Brazil. Both lineages were reared continuously in the laboratory at 28° C. and 70-80% relative humidity. Adult mosquitoes were maintained in a 10% sucrose solution, and the adult females were fed with sheep blood for egg laying. The larvae were reared on dog/cat food unless stated otherwise.
(§3) Bottles were prepared following the Brogdon and McAllister (1998) protocol [Brogdon and McAllister (1998) Emerg Infect Dis 4:605-613]. […] At 15, 30 and 45 min intervals, the number of live and dead mosquitoes in each bottle was recorded. […]

[2] = test system: Aedes aegypti female mosquitoes, Rio de Janeiro strain; assay: CDC bottle bioassay with deltamethrin, insecticide-resistant Rio de Janeiro strain; format: in vivo
Method: as §1, §2, §3

[3] = test system: Ae. aegypti Rockefeller strain; assay: Oviposition assay after larval dsRNA soaking plus feeding; format: in vivo, Aedes aegypti; settings: larvae soaked 24 h in 0.5 μg/μL dsRNA, fed twice with agarose plug containing dsRNA; 15 engorged females per cage; vs water control
Method: FIG. 12 is a flowchart illustration depicting introduction of dsRNA into mosquito larvae via soaking with different doses of “naked” dsRNA plus additional larvae feeding with food-containing dsRNA. Step a) 100 larvae from A. aegypti Rockefeller strain (3rd instar) were soaked for 24 hours with the respective dsRNAs (concentration range from 0.02-0.5 μg/μL) or only in water and were then fed 2 times with food plus agarose 2% containing dsRNA until they reach adult stage (Step b). Step c) The adults arising were allowed to copulate for 3-5 days. Step d) mosquitoes were fed with defibrinated sheep blood. Step e) after blood feeding 15 fully-engorged females were transferred into 3 small cages to be assayed for oviposition. Step f) the total number of laid eggs and the percentage of hatched eggs were counted. FIGS. 13A-B are graphs illustrating larvae from Ae. aegypti Rockefeller strain (3rd instar) soaked for 24 hours in 0.5 μg/μL of Aubergine (Aub) or Argonaute-3 (Ago) dsRNAs or water only. […] (FIG. 13A) The total number of laid eggs and the percentage of hatched eggs were counted (FIG. 13B). […]
(§4) Five days after the blood meal, an ovipositon cup was place inside each cage containing 15 females to allow the females to lay their eggs. […] The number of eggs laid was counted and used to check the viability and egg hatching rate.

[4] = test system: Argonaute-3 (AAEL007823) mRNA; assay: qPCR analysis of Ago-3 mRNA expression after dsRNA treatment; format: in vivo, Aedes aegypti; settings: vs water; for Ago3 mRNA levels: larvae soaked 24 h in dsRNA, 24 and 48 hours after the end of dsRNA treatment
Method: Third instar larvae were treated (in groups of 100 larvae) in a final volume of 3 mL of dsRNA solution in autoclaved water (0.5 μg/μL for sodium channel (AAEL008297), PgP (AAEL010379) and Ago3 (AAEL007823) dsRNA, or 0.1 μg/μL for CYP9J26 (JF924909.1). The control group was kept in 3 ml sterile water only. Larvae were soaked in the dsRNA solutions for 24 hr at 27° C., and then transferred into new containers (300 larvae/1500 mL of chlorine-free tap water), which were also maintained at 27° C., and were provided 6 mg/100 mL lab dog/cat diet (Purina Mills) suspended in water as a source of food on a daily basis. As pupae developed, they were transferred to individual vials to await eclosion and sex sorting. For bioassays purpose only females up to five days old were used. See Flowchart 1, FIG. 1 for detailed explanation of this experiment.
Total RNA was extracted from groups of five Ae. aegypti fourth instar larvae and early adult male/female Ae. aegypti, using TRIzol (Invitrogen, Carlsbad, Calif., USA) according to the manufacturer's instructions. RNA was treated with amplification grade DNase I (Invitrogen) and 1 μg was used to synthesize cDNA using a First Strand cDNA Synthesis kit (Invitrogen). PCR products were purified using a QIAquick PCR purification kit (Qiagen). The MEGAscript RNAi kit (Ambion) was then used for in vitro transcription and purification of dsRNAs. See Flowchart 4, FIG. 4 for detailed explanation production off dsRNA.
Approximately 1000 ng first-strand cDNA obtained as described previously was used as template. The qPCR reactions were performed using SYBR® Green PCR Master Mix (Applied Biosystems) following the manufacturer's instructions. […] Raw quantification cycle (Cq) values normalized against those of the tubulin and S7 standards were then used to calculate the relative expression levels in samples using the 2^−ΔΔct method [Livak & Schmittgen, (2001) Methods. […]

[5] = test system: Ae. aegypti Rockefeller strain; assay: Egg hatching rate after larval dsRNA soaking plus feeding; format: in vivo, Aedes aegypti; settings: larvae soaked 24 h in 0.5 μg/μL dsRNA, fed twice with agarose plug containing dsRNA; vs water control
Method: FIG. 12 is a flowchart illustration depicting introduction of dsRNA into mosquito larvae via soaking with different doses of “naked” dsRNA plus additional larvae feeding with food-containing dsRNA. Step a) 100 larvae from A. aegypti Rockefeller strain (3rd instar) were soaked for 24 hours with the respective dsRNAs (concentration range from 0.02-0.5 μg/μL) or only in water and were then fed 2 times with food plus agarose 2% containing dsRNA until they reach adult stage (Step b). Step c) The adults arising were allowed to copulate for 3-5 days. Step d) mosquitoes were fed with defibrinated sheep blood. Step e) after blood feeding 15 fully-engorged females were transferred into 3 small cages to be assayed for oviposition. Step f) the total number of laid eggs and the percentage of hatched eggs were counted. […] (FIG. 13A) The total number of laid eggs and the percentage of hatched eggs were counted (FIG. 13B). […]
as §4
To check the viability of the eggs the oviposition paper were kept to dry and embrionate for a period minimum of 5 days. […] The hatching rate (HR) for each treatment were calculated as follow: HR=total number of hatched larvae/total number of eggs oviposited). […]

CC1(C)[C@H](C(=O)O[C@H](C#N)c2cccc(Oc3ccccc3)c2)[C@@H]1C=C(Br)Br [deltamethrin]
mosquitoes dead (mortality) [1]: 100%
mosquitoes in the population resistant to deltamethrin ([2]; Rio de Janeiro (RJ) strain, at diagnostic dosage 2 μg/mL): 36.05%
mosquitoes killed (mortality) ([2]; diagnostic dosage 2 μg/mL of deltamethrin, Rio de Janeiro strain adult females): 63.95%

B1: Ago3: dsRNA targeting Argonaute-3 (AAEL007823), Example 1, SEQ ID NO: 1823 (nucleic acid)
chain: CCCCGTCGACGGCCACGAAGTTACGATCAAGATCATTTACAAGCGCAAACAGCGAATGAGCGAGAACATTCAATTCTACAACATTCTCTTCCAACGCATTATGAAAGTCCTGAAGATGGTCGAGATGGGTCGTAAGAACTTTGACCCCTCGGCCCCGAAACTGATTCCGCAGCATCGTCTGGAGATCTGGCCGGGATACGTTAGCGCTGTGGACGAATATGAGGGCGGCTTGATGTTGAATCTCGACGTGTCCCATCGTGTGCTGCTCCAGACGACGGTTTTGGATCACATCCGAACGCTGGCAAGGGCCAATCCCCAAGATTACAAAAACATGGCCACCAAATCGCTGCTGGGAGCCGTTATATTGACCCGA
modifications: double stranded RNA
oviposition rate (total number of laid eggs) [3]: no difference
Ago3 mRNA expression ([4]; adult mosquitoes soaked with dsRNA as larvae): reached normal levels
Ago3 mRNA levels [4]: decreased mRNA levels
Ago3 mRNA levels ([4]; listed as dsRNA against Ago3): induce gene silencing
number of hatched eggs (hatchability) [5]: 50%
